For assay [1], the target named is mouse melanocortin-1 receptor (mouse) (UniProt Q01727).
The target of assay [2] is mouse melanocortin-3 receptor (mouse) (UniProt P33033).
The target in assay [3] is mouse melanocortin-4 receptor (mouse) (UniProt P56450).
Assay [4] deals with mouse melanocortin-5 receptor (mouse) (UniProt P41149).
Assay [5] concerns the target mouse melanocortin-4 receptor (mouse) (UniProt P56450). This is another data set of the same source.
In assay [6] the target is mouse melanocortin-3 receptor (mouse) (UniProt P33033). The source holds these as a separate data set.

Square brackets hold non-standard residues; d marks the D form. dPhe(4-I) = N[C@H](Cc1ccc(I)cc1)C(=O)O; 2Nal = N[C@@H](Cc1ccc2ccccc2c1)C(=O)O; d2Nal = N[C@H](Cc1ccc2ccccc2c1)C(=O)O

The results in this text go back to publication PMC8533642 (Journal of medicinal chemistry, 2021).

Sequence of mouse melanocortin-3 receptor (mouse) (P33033 whole entry): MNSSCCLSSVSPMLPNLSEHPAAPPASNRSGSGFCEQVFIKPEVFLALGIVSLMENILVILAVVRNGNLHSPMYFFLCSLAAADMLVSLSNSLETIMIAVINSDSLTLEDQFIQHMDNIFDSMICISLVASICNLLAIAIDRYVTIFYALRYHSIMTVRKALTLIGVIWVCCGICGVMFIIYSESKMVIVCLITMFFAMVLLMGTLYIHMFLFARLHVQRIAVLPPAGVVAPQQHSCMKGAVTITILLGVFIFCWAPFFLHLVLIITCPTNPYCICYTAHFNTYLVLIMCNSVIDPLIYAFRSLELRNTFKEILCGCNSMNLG
Sequence of mouse melanocortin-5 receptor (mouse) (P41149 whole entry): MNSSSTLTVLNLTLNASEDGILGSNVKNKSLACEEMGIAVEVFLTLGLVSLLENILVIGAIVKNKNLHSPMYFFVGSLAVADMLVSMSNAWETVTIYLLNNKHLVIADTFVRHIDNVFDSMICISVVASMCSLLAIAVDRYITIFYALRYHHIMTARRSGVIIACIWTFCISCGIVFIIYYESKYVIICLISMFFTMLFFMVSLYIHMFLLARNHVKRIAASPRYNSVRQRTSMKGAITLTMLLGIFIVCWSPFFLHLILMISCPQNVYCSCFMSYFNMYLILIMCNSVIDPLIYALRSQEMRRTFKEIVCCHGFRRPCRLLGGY
Sequence of mouse melanocortin-4 receptor (mouse) (P56450 whole entry): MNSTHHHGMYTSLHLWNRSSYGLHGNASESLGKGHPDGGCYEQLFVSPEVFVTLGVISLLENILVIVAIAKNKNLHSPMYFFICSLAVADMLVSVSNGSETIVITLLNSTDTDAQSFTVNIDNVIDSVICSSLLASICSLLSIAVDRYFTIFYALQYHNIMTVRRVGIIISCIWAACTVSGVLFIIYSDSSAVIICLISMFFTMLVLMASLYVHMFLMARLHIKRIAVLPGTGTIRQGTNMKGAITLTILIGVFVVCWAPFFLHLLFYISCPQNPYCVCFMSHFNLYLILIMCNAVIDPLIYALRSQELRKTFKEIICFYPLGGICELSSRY
Sequence of mouse melanocortin-1 receptor (mouse) (Q01727 whole entry): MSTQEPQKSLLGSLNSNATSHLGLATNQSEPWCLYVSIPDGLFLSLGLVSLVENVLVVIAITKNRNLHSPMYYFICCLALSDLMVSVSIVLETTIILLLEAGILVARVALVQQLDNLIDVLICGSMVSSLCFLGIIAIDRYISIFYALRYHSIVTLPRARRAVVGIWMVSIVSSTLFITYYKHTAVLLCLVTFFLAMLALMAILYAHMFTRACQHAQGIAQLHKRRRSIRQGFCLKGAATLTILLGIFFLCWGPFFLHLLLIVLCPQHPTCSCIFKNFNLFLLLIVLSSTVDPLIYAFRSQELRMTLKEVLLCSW

For “Ac-DPhe(pI)-DNal(2’)-DPhe(pI)-Arg-NH2 (peptide)”, the % of maximal NDP-MSH response at 100 μM, cAMP AlphaScreen in assay [1] came to 40%. Besides, the agonist EC50, cAMP AlphaScreen in assay [2] was greater than 100 µM; in assay [3] it was greater than 100 µM; in assay [4], 0.13 µM.

Consider “Ac-DNal(2’)-Arg-DNal(2’)-DLys-NH2 (peptide)”, for which the % receptor activation relative to NDP-MSH (partial agonist), cAMP AlphaScreen in assay [1] was determined as 30%. In addition, the apparent EC50 (partial agonist), cAMP AlphaScreen in assay [1] worked out at 6 µM. Moreover, the agonist EC50, cAMP AlphaScreen in assay [2], in assay [3] and in assay [4] was greater than 100 µM throughout. Further, the pA2, antagonism of NDP-MSH at mMC4R, Schild analysis, cAMP AlphaScreen in assay [5] came out at 8.2.

Consider “Ac-DPhe(pI)-Arg-DNal(2’)-Arg-NH2 (peptide)”, for which the % receptor activation relative to NDP-MSH (partial agonist), cAMP AlphaScreen in assay [1] is 65%. The apparent EC50 (partial agonist), cAMP AlphaScreen in assay [1] came out at 0.4 µM. The agonist EC50, cAMP AlphaScreen in assay [2], in assay [3] and in assay [4] was greater than 100 µM each time. In addition, the pA2, antagonism of NDP-MSH at mMC3R, Schild analysis, cAMP AlphaScreen in assay [6] is 6.9. In assay [5], this substance displayed a pA2, antagonism of NDP-MSH at mMC4R, Schild analysis, cAMP AlphaScreen of 8.3.

For Ac-[d2Nal]RW[d2Nal]-NH2, the % of maximal NDP-MSH response at 100 μM, cAMP AlphaScreen in assay [1] was 40%; in assay [2], 40%; in assay [3] it was 30%. The agonist EC50, cAMP AlphaScreen in assay [4] was greater than 100 µM. The same substance had a pA2, antagonism of NDP-MSH at mMC3R, Schild analysis, cAMP AlphaScreen in assay [6] of 5.7.

In the case of “Ac-DPhe(pI)-DNal(2’)-Nal(2’)-DLys-NH2 (peptide)”, the % of maximal NDP-MSH response at 100 μM, cAMP AlphaScreen is 40% in assay [1], 20% in assay [2] and 50% in assay [4]. The same substance gave an agonist EC50, cAMP AlphaScreen in assay [3] greater than 100 µM.

Consider Ac-[d2Nal]RW[dK]-NH2, for which the agonist EC50, cAMP AlphaScreen in assay [1], in assay [2], in assay [3] and in assay [4] was greater than 100 µM in each case. For the same substance, in assay [6], the pA2, antagonism of NDP-MSH at mMC3R, Schild analysis, cAMP AlphaScreen was determined as 5.5. For the same substance, the pA2, antagonism of NDP-MSH at mMC4R, Schild analysis, cAMP AlphaScreen in assay [5] stood at 7.7.

Consider Ac-[dPhe(4-I)]R[2Nal]R-NH2, for which the % of maximal NDP-MSH response at 100 μM, cAMP AlphaScreen in assay [1] and in assay [3] was 25% throughout. In addition, the agonist EC50, cAMP AlphaScreen in assay [2] and in assay [4] was greater than 100 µM each time. The substance also yielded a pA2, antagonism of NDP-MSH at mMC3R, Schild analysis, cAMP AlphaScreen in assay [6] of 7.8. Also, the antagonist Ki = 10^-(pA2), NDP-MSH at mMC4R, cAMP AlphaScreen in assay [5] stood at 1 nM.

In turn, “Ac-Phe(pI)-Nal(2’)-Phe(pI)-Arg-NH2 (peptide)” came in with a % of maximal NDP-MSH response at 100 μM, cAMP AlphaScreen in assay [1] of 60%.

In assay [1], “Ac-DPhe(pI)-Arg-DPhe(pI)-DNal(2’)-NH2 (peptide)” registered an agonist EC50, cAMP AlphaScreen of 1.1 µM. The % of maximal NDP-MSH response at 100 μM, cAMP AlphaScreen was 40% in assay [2], 40% in assay [3] and 65% in assay [4]. The same substance came in with a pA2, antagonism of NDP-MSH at mMC3R, Schild analysis, cAMP AlphaScreen in assay [6] of 6.3. In addition, the pA2, antagonism of NDP-MSH at mMC4R, Schild analysis, cAMP AlphaScreen in assay [5] was 6.6.

The substance “Ac-DNal(2’)-Arg-DNal(2’)-Arg-NH2 (peptide)” yielded a % receptor activation relative to NDP-MSH (partial agonist), cAMP AlphaScreen in assay [1] of 60%. The apparent EC50 (partial agonist), cAMP AlphaScreen in assay [1] was 1 µM. In addition, the agonist EC50, cAMP AlphaScreen in assay [2], in assay [3] and in assay [4] was greater than 100 µM each time. This substance also came in with a pA2, antagonism of NDP-MSH at mMC3R, Schild analysis, cAMP AlphaScreen in assay [6] of 6.1. The substance further returned a pA2, antagonism of NDP-MSH at mMC4R, Schild analysis, cAMP AlphaScreen in assay [5] of 8.3.

With “Ac-DNal(2’)-Arg-DPhe(pI)-Arg-NH2 (peptide)”, the agonist EC50, cAMP AlphaScreen in assay [1] is 0.04 µM; in assay [2], greater than 100 µM; in assay [3], greater than 100 µM; in assay [4], greater than 100 µM. The same substance yielded a pA2, antagonism of NDP-MSH at mMC3R, Schild analysis, cAMP AlphaScreen in assay [6] of 7.1. Also, in assay [5], the pA2, antagonism of NDP-MSH at mMC4R, Schild analysis, cAMP AlphaScreen stood at 8.6.

Consider “Ac-DPhe(pI)-Arg-DNal(2’)-DLys-NH2 (peptide)”, for which the % receptor activation relative to NDP-MSH (partial agonist), cAMP AlphaScreen in assay [1] is 30%. In assay [1], the apparent EC50 (partial agonist), cAMP AlphaScreen turned out to be 3.5 µM. Also, the agonist EC50, cAMP AlphaScreen in assay [2], in assay [3] and in assay [4] was greater than 100 µM throughout. In addition, the pA2, antagonism of NDP-MSH at mMC3R, Schild analysis, cAMP AlphaScreen in assay [6] worked out at 7.2. For the same substance, the pA2, antagonism of NDP-MSH at mMC4R, Schild analysis, cAMP AlphaScreen in assay [5] came out at 8.6.

As to “Ac-DNal(2’)-Arg-DPhe(pI)-DNal(2’)-NH2 (peptide)”, the values for the % of maximal NDP-MSH response at 100 μM, cAMP AlphaScreen in assay [2], in assay [3] and in assay [4] were 40%, 30% and 40%, respectively. Moreover, the pA2, antagonism of NDP-MSH at mMC3R, Schild analysis, cAMP AlphaScreen in assay [6] was determined as 6.1. The substance further returned a pA2, antagonism of NDP-MSH at mMC4R, Schild analysis, cAMP AlphaScreen in assay [5] of 6.5.

Take Ac-[dPhe(4-I)]RW[d2Nal]-NH2: the figures for the % of maximal NDP-MSH response at 100 μM, cAMP AlphaScreen in assay [1], in assay [2] and in assay [3] were 45%, 25% and 35%, respectively. The substance further registered an agonist EC50, cAMP AlphaScreen in assay [4] greater than 100 µM. Moreover, the pA2, antagonism of NDP-MSH at mMC4R, Schild analysis, cAMP AlphaScreen in assay [5] was found to be 7.6.

With “Ac-DNal(2’)-Arg-Nal(2’)-DNal(2’)-NH2 (peptide)”, the % of maximal NDP-MSH response at 100 μM, cAMP AlphaScreen in assay [1] was determined as 40%; in assay [2], 30%; in assay [3], 30%; in assay [4] it was 25%. The pA2, antagonism of NDP-MSH at mMC4R, Schild analysis, cAMP AlphaScreen in assay [5] is 6.7.

Turning to “Ac-DPhe(pI)-Arg-DNal(2’)-DNal(2’)-NH2 (peptide)”, the % of maximal NDP-MSH response at 100 μM, cAMP AlphaScreen is 80% in assay [1], 45% in assay [2], 45% in assay [3] and 20% in assay [4]. In assay [6], this substance had a pA2, antagonism of NDP-MSH at mMC3R, Schild analysis, cAMP AlphaScreen of 6.1. Besides, the pA2, antagonism of NDP-MSH at mMC4R, Schild analysis, cAMP AlphaScreen in assay [5] came out at 6.7.

Ac-[d2Nal]R[2Nal]R-NH2: the agonist EC50, cAMP AlphaScreen in assay [1], in assay [2] and in assay [4] was greater than 100 µM each time. In assay [3], this substance yielded a % of maximal NDP-MSH response at 100 μM, cAMP AlphaScreen of 30%. This substance also displayed a pA2, antagonism of NDP-MSH at mMC4R, Schild analysis, cAMP AlphaScreen in assay [5] of 8.8.

With “Ac-DPhe(pI)-DNal(2’)-Trp-DLys-NH2 (peptide)”, the % of maximal NDP-MSH response at 100 μM, cAMP AlphaScreen in assay [1] was 65%. The agonist EC50, cAMP AlphaScreen in assay [2], in assay [3] and in assay [4] was greater than 100 µM in each case. The same substance returned a pA2, antagonism of NDP-MSH at mMC3R, Schild analysis, cAMP AlphaScreen in assay [6] of 5.7. This substance also yielded a pA2, antagonism of NDP-MSH at mMC4R, Schild analysis, cAMP AlphaScreen in assay [5] of 6.6.

“Ac-DNal(2’)-DNal(2’)-DPhe(pI)-Arg-NH2 (peptide)”: in assay [1], the % of maximal NDP-MSH response at 100 μM, cAMP AlphaScreen turned out to be 25%. For the same substance, the agonist EC50, cAMP AlphaScreen in assay [2] and in assay [3] was greater than 100 µM throughout. Further, in assay [6], the pA2, antagonism of NDP-MSH at mMC3R, Schild analysis, cAMP AlphaScreen was less than 5.5. Also, in assay [5], the pA2, antagonism of NDP-MSH at mMC4R, Schild analysis, cAMP AlphaScreen is less than 5.5.

With “Ac-DPhe(pI)-DNal(2’)-Trp-Arg-NH2 (peptide)”, the agonist EC50, cAMP AlphaScreen in assay [1], in assay [2], in assay [3] and in assay [4] was greater than 100 µM in each case. Further, the pA2, antagonism of NDP-MSH at mMC4R, Schild analysis, cAMP AlphaScreen in assay [5] stood at 5.6.

Turning to “Ac-DNal(2’)-DNal(2’)-Nal(2’)-DLys-NH2 (peptide)”, the % of maximal NDP-MSH response at 100 μM, cAMP AlphaScreen in assay [1] came to 45%. Moreover, the agonist EC50, cAMP AlphaScreen in assay [2], in assay [3] and in assay [4] was greater than 100 µM throughout.

For Ac-[dPhe(4-I)]R[2Nal][d2Nal]-NH2, the % of maximal NDP-MSH response at 100 μM, cAMP AlphaScreen in assay [1] was found to be 55%. Moreover, the agonist EC50, cAMP AlphaScreen in assay [2], in assay [3] and in assay [4] was greater than 100 µM throughout. In assay [5], the pA2, antagonism of NDP-MSH at mMC4R, Schild analysis, cAMP AlphaScreen was 6.7.

Regarding “Ac-DPhe(pI)-DNal(2’)-DPhe(pI)-DLys-NH2 (peptide)”, the agonist EC50, cAMP AlphaScreen in assay [1], in assay [2], in assay [3] and in assay [4] was greater than 100 µM each time.

The substance “Ac-DPhe(pI)-DNal(2’)-Nal(2’)-Arg-NH2 (peptide)” returned a % of maximal NDP-MSH response at 100 μM, cAMP AlphaScreen in assay [1] of 20%. The agonist EC50, cAMP AlphaScreen in assay [2] was greater than 100 µM; in assay [3], greater than 100 µM; in assay [4], 0.8 µM. Also, the pA2, antagonism of NDP-MSH at mMC4R, Schild analysis, cAMP AlphaScreen in assay [5] was found to be 5.8.

In the case of “Ac-DPhe(pI)-DNal(2’)-DNal(2’)-Arg-NH2 (peptide)”, the agonist EC50, cAMP AlphaScreen in assay [1] was greater than 100 µM; in assay [2] it was greater than 100 µM; in assay [3] it was greater than 100 µM; in assay [4], 0.23 µM.

For the substance “Ac-DPhe(pI)-DNal(2’)-DNal(2’)-DLys-NH2 (peptide)”, the % of maximal NDP-MSH response at 100 μM, cAMP AlphaScreen in assay [1] came to 35%. Besides, the agonist EC50, cAMP AlphaScreen in assay [2], in assay [3] and in assay [4] was greater than 100 µM throughout. In assay [5], this substance displayed a pA2, antagonism of NDP-MSH at mMC4R, Schild analysis, cAMP AlphaScreen of 6.3.

Turning to “Ac-DNal(2’)-DNal(2’)-Nal(2’)-Arg-NH2 (peptide)”, the % of maximal NDP-MSH response at 100 μM, cAMP AlphaScreen stood at 55% in assay [1] and 40% in assay [4]. Also, the agonist EC50, cAMP AlphaScreen in assay [2] and in assay [3] was greater than 100 µM each time.

In the case of Ac-[dPhe(4-I)]R[2Nal][dK]-NH2, the agonist EC50, cAMP AlphaScreen in assay [1], in assay [2], in assay [3] and in assay [4] was greater than 100 µM throughout. Also, the pA2, antagonism of NDP-MSH at mMC3R, Schild analysis, cAMP AlphaScreen in assay [6] was found to be 6.8.
